Data reported in PMC3774380.

Target: L-glucagon (natural) (human) (UniProt P01275)
Experiment: competitive pull-down
Settings: all L-nucleotides, Selection buffer: 20 mM Tris pH 7.4, 150 mM NaCl, 5 mM KCl, 1 mM MgCl2, 1 mM CaCl2, 0.1% Tween 20, 0.1% CHAPS, 100 ug/ml HSA, 10 ug/ml yeast RNA, 37 C …

Sequence of L-glucagon (natural) (human) (P01275 53-81): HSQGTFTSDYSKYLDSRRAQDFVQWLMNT

Question: Which Kd (ribonucleotides at positions 9, 15, 18, 19, 29, 30, rest deoxy) does the source give for “GCAGTGGGGAAATGGGAGGGCTAGGTGGAAGGAATCTGAGCTACTGC [L-257-E1-001-6xR]” here?
Answer: 6.4 nM

Question: “GCAGTGGGGAAATGGGAGGGCTAGGTGGAAGGAATCTGAGCTACTGC [L-257-E1-001-R15/29/30]” was tested. Which Kd (ribonucleotides at positions 15, 29, 30, rest deoxy) did it give?
Answer: 20 nM

Question: “GCGGGAAATGGGAGGGCTAGGTGGAAGGAATCTGAGCGC [L-257-E1-030-6xR]” was tested. Which Kd (ribonucleotides at positions 5, 11, 14, 15, 25, 26, rest deoxy) did it give?
Answer: 6.3 nM
